According to PMC11376372:

Tests used:
[1] = target: reduced wheat protein disulfide isomerase (wPDI^R) (wheat) (UniProt P52589); experiment: ITC; MicroCal VP-ITC; 0.3 mM 1Dx5-NTD^AAA titrated into 70 uM wPDI, 27 additions of 10 uL; 1 mM DTT in both buffers (reduced wPDI); single-site binding model
[2] = target: oxidized wheat protein disulfide isomerase (wPDI^O) (wheat) (UniProt P52589); experiment: ITC; MicroCal VP-ITC; 0.3 mM 1Dx5-NTD^AAA titrated into 70 uM wPDI, 27 additions of 10 uL; 0.5 mM GSSG in both buffers (oxidized wPDI); single-site binding model

Kd [1]: 2.59 µM
Kd [2]: 316 µM
Substance: 1Dx5-NTD^AAA, triple mutant of the N-terminal domain of HMW glutenin subunit 1Dx5 in which all three cysteines were mutated into alanine (domain or fragment)
